Patent US9513240B2, “MEMS-based calorimeter, fabrication, and use thereof” (The Trustees of Columbia University in the City of New York, priority 2011, dated 2016)

How the values were obtained:
[1] = typical range; cited from earlier work
[2] = MEMS DSC measurement of lysozyme unfolding; assay type: physicochemical; conditions: lysozyme 1 to 20 mg/mL in 0.1 M Glycine-HCl buffer (pH 2.5); scan 25-75° C. at 5° C./min
Protocol: DSC measurements of biomolecules were performed using the calibrated microdevice, whose sample chamber and reference chamber were respectively filled with biological sample and buffer solutions, scanned in a range of temperature of interest. The temperature sensors were used to monitor the temperatures of calorimetric chambers while the device output was obtained in real time to compute the biomolecular thermal power. Before DSC measurements, the baseline in device output, i.e., the thermopile output voltage in the absence of a differential power input, during temperature scanning was measured with both calorimetric chambers filled with buffer solutions. Biological sample and buffer solutions were degassed with a vacuum chamber built in-house, metered with micropipettes, and introduced by a syringe pump (New Era Pump Systems, NE 1000).
The calibrated MEMS DSC device was employed to characterize protein unfolding, a common type of biomolecular conformational transition.
The thermopile output voltage as a function of temperature, corrected by baseline subtraction, was measured at varying protein concentrations ranging from 1 to 20 mg/mL (FIG. 10). […]

[3] = MEMS AC-DSC measurement of lysozyme unfolding; assay type: physicochemical
Description: The DSC measurement system was configured similarly to that of Example 2. The microdevice was also placed in a thermal enclosure built in-house. The temperature of the sample stage in the thermal enclosure was controlled in closed-loop via a proportional-integral-derivative (PID) algorithm implemented by a commercial temperature controller (Lakeshore 331). The on-chip microheaters driven by a DC power supply (Agilent E3631A) were used to generate a constant differential power input, while for modulated heating, a square-wave AC voltage generated by a waveform generator (Agilent 33220A) was applied (FIG. 13). […] During device calibration, the thermopile output voltage was measured by a nanovoltmeter (Agilent 34420A), while during AC-DSC measurement, the amplitude and phase of thermopile voltage were measured by a lock-in amplifier (Stanford Research Systems SR830) referenced by the same AC modulation square wave from the waveform generator. […]
The methods for calibrating the DC performance of the MEMS device were substantially the same as described in Example 2. The baseline in device output, i.e., the thermopile voltage with no differential power input during temperature scanning, was measured with both chambers filled with buffer solutions. […]

lysozyme
Tm, published data [1]: 55-58.9 °C
ΔH of unfolding, published data [1]: 90.1 to 105 kcal/mol
melting temperature Tm [2]: approximately 55 °C
total change of molar enthalpy (ΔH) of unfolding [2]: approximately 450 kJ/mol
apparent melting temperature (Tm) ([3]; 10 and 20 mg/mL in 0.1 M Glycine-HCl buffer, pH 2.5, 25 to 82° C. at 5° C./min, modulation 1, 5 or 10 Hz): 55-58 °C
difference in the specific heat capacity (Δc) between native and unfolded states ([3]; regardless of the modulation frequency): 3.0 kJ/mol·K
